The results in this text go back to the supplement of paper PMC7877785.

The nature of this data set: self-splicing fitness, log relative to wild type (ln ratio); higher = more splicing; Tetrahymena group I intron in knt gene, E. coli kanamycin selection, DiMSum; sequences stand for … in CUCUCU…GGAGGGAAAAGUUAUCAGGCAUGCACCUGGUAGCUAGUCUUUAAACCAAUAGAUUGCAUCGGUUUAAAAGGCAAGACCGUCAAAUUGCGGGAAAGGGGUCAACAGCCGUUCAGUACCAAGUCUCAGGGGAAACUUUGAGAUGGCCUUGCAAAGGGUAUGGUAAUAAGCUGACGGACAUGGUCCUAACCACGCAGCCAAGUCCUAAGUCAACAGAUCUUCUGUUGAUAUGGAUGCAGUUCACAGACUAAAUGUCGGUCGGGGAAGAUGUAUUCUUCUCAUAAGAUAUAGUCGGACCUCUCCUUAAUGGGAGCUAGCGGAUGAAGUGAUGCAACACUGGAGCCGCUGGGAACUAAUUUGUAUGCGAAAGUAUAUUGAUUAGUUUUGGAGUACUCGUGGUCG
In short, it runs like this: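 Six replicate transformations of E. coli BL21(DE3) with a pET-22b(+) library were grown overnight at 37°C or 30°C. The library randomised all eight P1ex-region intron nucleotides, the intron lying in the knt kanamycin-resistance gene, and plates were LB agar with or without 25 μg/mL kanamycin plus 100 μg/mL carbenicillin, 50 μM IPTG and 0.2% rhamnose. Pooled colonies were amplicon-sequenced on an Illumina HiSeq 2500, and fitness is the DiMSum error-weighted combination of wild-type-normalised replicate fold changes, kanamycin versus none.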

± gives the uncertainty stated by the source.

CCGGAGCAAUAUUACGAACU: the “self-splicing fitness (ln)” value was -2.29 ± 0.31 (30 °C) and -0.657 ± 0.28 (37 °C). On the same counts, the results for CAUUAGCAAUAUUACGCGGA are -2.93 ± 0.23 and -1 ± 0.14. The corresponding values for UCUAAGCAAUAUUACGAGAG are -3.21 ± 0.28 and -2.37 ± 0.21. For CUCUAGCAAUAUUACGUUAG, the “self-splicing fitness (ln)” value is -3.81 ± 0.24 (30 °C) and -2.13 ± 0.22 (37 °C).

Consider CCUCAGCAAUAUUACGCUGC, for which the “self-splicing fitness (ln)” value is -3.53 ± 0.21 (30 °C) and -1.69 ± 0.24 (37 °C). As to UGGCAGCAAUAUUACGGCGU, the “self-splicing fitness (ln)” value (30 °C) was -1.32 ± 0.12 and the “self-splicing fitness (ln)” value (37 °C) is -0.678 ± 0.14.

Take AAGGAGCAAUAUUACGUAGG: the “self-splicing fitness (ln)” value was -3.12 ± 0.22 (30 °C) and -2.02 ± 0.44 (37 °C).

Regarding AGUUAGCAAUAUUACGUUUA, the “self-splicing fitness (ln)” value runs as follows: (30 °C) -2.23 ± 0.21; (37 °C) -1.06 ± 0.21.

Consider GCGUAGCAAUAUUACGAAAU, for which the “self-splicing fitness (ln)” value is -2.16 ± 0.29 (30 °C) and -0.358 ± 0.24 (37 °C). In the case of AGAAAGCAAUAUUACGCACU, the “self-splicing fitness (ln)” value was -0.82 ± 0.15 (30 °C) and -1.17 ± 0.18 (37 °C).

With UCCAAGCAAUAUUACGUUCU, the “self-splicing fitness (ln)” value is, setting by setting: (30 °C) -2.62 ± 0.1; (37 °C) -3.9 ± 0.29. For the sequence UAAGAGCAAUAUUACGGUGA, the “self-splicing fitness (ln)” value by setting is: (30 °C) -3.83 ± 0.23; (37 °C) -2.14 ± 0.16. With CAUAAGCAAUAUUACGGCCG, the “self-splicing fitness (ln)” value (30 °C) turned out to be 0.39 ± 0.15 and the “self-splicing fitness (ln)” value (37 °C) turned out to be 0.125 ± 0.16.

As to UGAUAGCAAUAUUACGAGGG, the “self-splicing fitness (ln)” value (37 °C) is -2.38 ± 0.4. For the sequence ACUUAGCAAUAUUACGUGGC, the “self-splicing fitness (ln)” value was -2.83 ± 0.16 (30 °C) and -2.85 ± 0.29 (37 °C). The corresponding values for GUCUAGCAAUAUUACGUGUG are -0.5 ± 0.063 and -0.649 ± 0.079.

As to UAGCAGCAAUAUUACGUGCC, the “self-splicing fitness (ln)” value runs as follows: (30 °C) -1.84 ± 0.17; (37 °C) -1.2 ± 0.21.

In the case of GCCCAGCAAUAUUACGCCAG, the “self-splicing fitness (ln)” value is, setting by setting: (30 °C) -1.92 ± 0.13; (37 °C) -2.32 ± 0.23.

Consider UAUAAGCAAUAUUACGUCUA, for which the “self-splicing fitness (ln)” value runs as follows: (30 °C) 0.561 ± 0.077; (37 °C) 0.494 ± 0.1. On the same counts, the results for ACCCAGCAAUAUUACGUCGU are -0.24 ± 0.039 and -0.318 ± 0.051.

Consider CACAAGCAAUAUUACGGGCA, for which the “self-splicing fitness (ln)” value is -3.05 ± 0.14 (30 °C) and -1.39 ± 0.099 (37 °C). The corresponding values for UUACAGCAAUAUUACGGGGC are -3.36 ± 0.48 and -1.17 ± 0.45. With GAGGAGCAAUAUUACGAUUG, under “37 °C”, the “self-splicing fitness (ln)” value was -1.93 ± 0.29. As to GGACAGCAAUAUUACGUGCA, the “self-splicing fitness (ln)” value by setting is: (30 °C) -0.37 ± 0.085; (37 °C) -0.64 ± 0.09. As to ACCUAGCAAUAUUACGAGUA, the “self-splicing fitness (ln)” value (30 °C) was -2.47 ± 0.14 and the “self-splicing fitness (ln)” value (37 °C) is -1.16 ± 0.12. Consider UGCAAGCAAUAUUACGAUAU, for which the “self-splicing fitness (ln)” value (30 °C) is -3.42 ± 0.2 and the “self-splicing fitness (ln)” value (37 °C) was -0.49 ± 0.1. On the same counts, the results for CUAAAGCAAUAUUACGGGGU are -3.19 ± 0.14 and -2.94 ± 0.17. For the sequence AAGUAGCAAUAUUACGCUGG, the “self-splicing fitness (ln)” value was -2 ± 0.12 (30 °C) and -0.92 ± 0.12 (37 °C). The corresponding values for UCUGAGCAAUAUUACGUUAG are -2.36 ± 0.14 and -1.82 ± 0.17. UCGAAGCAAUAUUACGCGUC: the “self-splicing fitness (ln)” value (37 °C) is -0.484 ± 0.32. Consider GAUAAGCAAUAUUACGCUGC, for which the “self-splicing fitness (ln)” value reads like this: (30 °C) -2.88 ± 0.23; (37 °C) -3.04 ± 0.3. Regarding UGUUAGCAAUAUUACGCGCG, the “self-splicing fitness (ln)” value by setting is: (30 °C) -1.36 ± 0.19; (37 °C) -0.771 ± 0.21.

For GUUGAGCAAUAUUACGCUUG, the “self-splicing fitness (ln)” value is, setting by setting: (30 °C) -2.79 ± 0.22; (37 °C) -2.15 ± 0.27. The corresponding values for CGUAAGCAAUAUUACGCCCA are -1.83 ± 0.19 and -0.135 ± 0.24. Turning to GCCAAGCAAUAUUACGCACA, the “self-splicing fitness (ln)” value runs as follows: (30 °C) -1.07 ± 0.14; (37 °C) -0.724 ± 0.15. Take CAGUAGCAAUAUUACGGAGU: the “self-splicing fitness (ln)” value (30 °C) is -3.34 ± 0.36 and the “self-splicing fitness (ln)” value (37 °C) was -2.67 ± 0.26.

Regarding ACCCAGCAAUAUUACGGCUA, the “self-splicing fitness (ln)” value (30 °C) was -0.684 ± 0.1 and the “self-splicing fitness (ln)” value (37 °C) was 0.23 ± 0.1.

Regarding CCCAAGCAAUAUUACGGAGG, where the note is “30 °C”, the “self-splicing fitness (ln)” value is -1.95 ± 0.22.

Consider ACGAAGCAAUAUUACGCACG, for which the “self-splicing fitness (ln)” value was -3.26 ± 0.18 (30 °C) and -2.22 ± 0.17 (37 °C). On to CGAAAGCAAUAUUACGUCAA, for which the “self-splicing fitness (ln)” value (30 °C) was -3.45 ± 0.34 and the “self-splicing fitness (ln)” value (37 °C) was -2.11 ± 0.25. The corresponding values for GCAUAGCAAUAUUACGCUAG are -2.24 ± 0.3 and -1.82 ± 0.23. The corresponding values for AUCCAGCAAUAUUACGACGU are -0.176 ± 0.057 and 0.696 ± 0.081. In the case of UUACAGCAAUAUUACGCAUU, the “self-splicing fitness (ln)” value was -2.73 ± 0.17 (30 °C) and -1.52 ± 0.14 (37 °C). The corresponding values for UCUGAGCAAUAUUACGAAUC are -3.29 ± 0.25 and -3.03 ± 0.43. On the same counts, the results for ACCUAGCAAUAUUACGCGGC are -3.53 ± 0.33 and -1.38 ± 0.17. The corresponding values for UCCUAGCAAUAUUACGGUAA are -0.552 ± 0.12 and -0.427 ± 0.11. Regarding UCCGAGCAAUAUUACGGCUC, the “self-splicing fitness (ln)” value (37 °C) was -0.168 ± 0.28. With UCAUAGCAAUAUUACGUAUC, the “self-splicing fitness (ln)” value (30 °C) was -4.44 ± 0.33 and the “self-splicing fitness (ln)” value (37 °C) was -3.23 ± 0.24. As for UACGAGCAAUAUUACGGCUA, the “self-splicing fitness (ln)” value was found to be 0.411 ± 0.22 (30 °C) and 0.683 ± 0.23 (37 °C). Take UUUGAGCAAUAUUACGCGAU: under “37 °C”, the “self-splicing fitness (ln)” value is -2.19 ± 0.4. Turning to AUGAAGCAAUAUUACGUACA, the “self-splicing fitness (ln)” value reads like this: (30 °C) -0.369 ± 0.083; (37 °C) -0.631 ± 0.089. Take AACUAGCAAUAUUACGACCC: the “self-splicing fitness (ln)” value (37 °C) is -0.568 ± 0.41.

For CCAUAGCAAUAUUACGCGUU, the “self-splicing fitness (ln)” value is, setting by setting: (30 °C) -3.53 ± 0.23; (37 °C) -2.51 ± 0.24. The corresponding values for CGCCAGCAAUAUUACGAUGG are -3.09 ± 0.15 and -2.72 ± 0.23.

Take UGCCAGCAAUAUUACGAGAA: the “self-splicing fitness (ln)” value (37 °C) was -0.955 ± 0.25.

As for CAGGAGCAAUAUUACGGUCA, the “self-splicing fitness (ln)” value was -2.39 ± 0.3 (30 °C) and -1.56 ± 0.32 (37 °C). For the sequence AGCAAGCAAUAUUACGGGCG, the “self-splicing fitness (ln)” value (30 °C) was -0.538 ± 0.061 and the “self-splicing fitness (ln)” value (37 °C) is -0.377 ± 0.074. The corresponding values for AUCCAGCAAUAUUACGACAC are -0.468 ± 0.11 and -0.488 ± 0.16. The corresponding values for GUCAAGCAAUAUUACGCGUA are -1.32 ± 0.08 and -0.362 ± 0.077.

Regarding AGCUAGCAAUAUUACGCGUC, the “self-splicing fitness (ln)” value is -4.28 ± 0.36 (30 °C) and -2.08 ± 0.23 (37 °C). Take UUGCAGCAAUAUUACGCACC: the “self-splicing fitness (ln)” value (30 °C) was -0.223 ± 0.47. Consider CCGAAGCAAUAUUACGAUAU, for which the “self-splicing fitness (ln)” value is, setting by setting: (30 °C) -4.3 ± 0.35; (37 °C) -3.21 ± 0.26. With GACUAGCAAUAUUACGUGGA, the “self-splicing fitness (ln)” value was -1.46 ± 0.13 (30 °C) and -1.07 ± 0.16 (37 °C).

Regarding GUCAAGCAAUAUUACGCCCG, the “self-splicing fitness (ln)” value by setting is: (30 °C) -2.15 ± 0.21; (37 °C) -1.11 ± 0.2. The corresponding values for CAGGAGCAAUAUUACGGAUC are -4.29 ± 0.23 and -3.84 ± 0.34. In the case of CAAGAGCAAUAUUACGGUGG, the “self-splicing fitness (ln)” value runs as follows: (30 °C) -2 ± 0.082; (37 °C) -1.58 ± 0.11. On the same counts, the results for UCUGAGCAAUAUUACGUCAA are -2.53 ± 0.24 and -2.22 ± 0.27. On to GUACAGCAAUAUUACGUCGC, for which the “self-splicing fitness (ln)” value (30 °C) was -2.57 ± 0.15 and the “self-splicing fitness (ln)” value (37 °C) is -0.812 ± 0.16. In the case of CUUGAGCAAUAUUACGAGAC, the “self-splicing fitness (ln)” value (30 °C) is -2.12 ± 0.33.

In the case of GGCAAGCAAUAUUACGCUAC, the “self-splicing fitness (ln)” value (30 °C) was -3.33 ± 0.27 and the “self-splicing fitness (ln)” value (37 °C) is -2.79 ± 0.23.

For CGGGAGCAAUAUUACGUGAU, the “self-splicing fitness (ln)” value (37 °C) is -0.773 ± 0.19.

Regarding CUCGAGCAAUAUUACGAUGG, the “self-splicing fitness (ln)” value is, setting by setting: (30 °C) -1.83 ± 0.083; (37 °C) -1.61 ± 0.1. As for CCGAAGCAAUAUUACGCCGG, the “self-splicing fitness (ln)” value (37 °C) was -2.21 ± 0.46. For UACGAGCAAUAUUACGAGGG, the “self-splicing fitness (ln)” value by setting is: (30 °C) -1.82 ± 0.12; (37 °C) -2.11 ± 0.27.

Take UAUUAGCAAUAUUACGUAAA: the “self-splicing fitness (ln)” value reads like this: (30 °C) -2.63 ± 0.25; (37 °C) -1.09 ± 0.38. Regarding GCCUAGCAAUAUUACGUCCU, the “self-splicing fitness (ln)” value reads like this: (30 °C) -1.68 ± 0.068; (37 °C) -0.494 ± 0.096. On the same counts, the results for GCGCAGCAAUAUUACGUGAU are -0.659 ± 0.063 and 0.488 ± 0.083. The corresponding values for GACCAGCAAUAUUACGGUAU are -1.29 ± 0.056 and -0.678 ± 0.068. On the same counts, the results for UCAAAGCAAUAUUACGCGCA are -0.442 ± 0.066 and -0.207 ± 0.077.
